In the RNAGym collection of RNA variant scans (doi:10.7554/elife.80360) one finds self-cleavage data, which are given here for 167 variants.

B1: HDV Ribozyme (parent)
chain: GGCCGGCAUGGUCCCAGCCUCCUCGCUGGCGCCGGCUGGGCAACAUUCCGAGGGGACCGUCCCCUCGGUAAUGGCGAAUGGGACCCA

The variants in the data set derive from B1. Kind of data set: self-cleavage, relative activity (ratio to wild type); higher = more cleavage; co-transcriptional.
Consider C19G G53U, for which the self-cleavage is 0.0542.
Next, C19G G53A: 0.041.
C19G G53C: the self-cleavage came out at 0.0852.
For the variant U20A C33G, the self-cleavage was determined as 0.151.
Next, C19U U46A: 0.0875; U20C A71G: 0.0978.
On to U20C A71U, for which the self-cleavage is 0.0898.
On to U20A U46C, for which the self-cleavage turned out to be 0.
As for U20A C44G, the self-cleavage was found to be 0.111.
Regarding U20A C44A, the self-cleavage amounted to 0.0573.
As for U20A C44U, the figure is 0.
Next, C19G C63A: 0.0936; C19G C63G: 0.229.
In the case of C19U C49A, the self-cleavage was determined as 0.0378.
As for U20A A42U, the figure is 0; as for U20A A42C, 0.0594; as for C19U C64A, 0.0554.
With C19U C64U, the self-cleavage is 0.148.
As for C19U C64G, the figure is 0.0923; as for C19G G39A, 0.032; as for C19G G39U, 0.0707.
Next, U20A A43G: 0.0573; C19U G53A: 0.229.
C19U G53C: the self-cleavage came to 0.0875.
Take C19U C32A: the self-cleavage was 0.0361.
As to C19U C32U, the self-cleavage was found to be 0.295.
For the variant U20A G29U, the self-cleavage came to 0.0875.
As for C19U C85U, the figure is 0.22.
Next, U20A G40C: 0.178; C19U U20G: 0.0594.
As for C19G U27C, the self-cleavage is 0.0875.
In the case of C19U A83G, the self-cleavage was found to be 0.0985.
On to C19U A83U, for which the self-cleavage was 0.148.
Turning to C19G G76U, the self-cleavage was 0.0791.
As to C19U G40A, the self-cleavage came out at 0.0944.
As for C19U G40C, the self-cleavage was 0.0923.
In the case of C19U G52C, the self-cleavage was 0.326.
Next, C19G C86U: 0.26; C19U C84G: 0.0332; C19U C30A: 0.0449.
Take C19U C30G: the self-cleavage amounted to 0.0936.
For the variant C19U A78C, the self-cleavage came to 0.172.
On to C19U A78G, for which the self-cleavage came to 0.0405.
Consider C19G A83U, for which the self-cleavage was determined as 0.0504.
Next, U20A C58G: 0.158; U20A C58A: 0.0615.
In the case of C19U G67A, the self-cleavage came out at 0.0739.
In the case of C19U C63G, the self-cleavage was found to be 0.0707.
As to C19U C63U, the self-cleavage worked out at 0.134.
Regarding C19G U65A, the self-cleavage is 0.0354.
For the variant C19G U65C, the self-cleavage was found to be 0.
Take C19G U65G: the self-cleavage is 0.111.
For the variant C19U C62U, the self-cleavage worked out at 0.244.
For C19U C62A, the self-cleavage came out at 0.142.
Next, C19G C30U: 0.0462; U20A A71C: 0.0554; U20A A71U: 0.0504.
C19G G55U: the self-cleavage is 0.04.
Consider C19G G82U, for which the self-cleavage amounted to 0.0627.
With C19G G82A, the self-cleavage was 0.102.
Turning to U20A C30U, the self-cleavage stood at 0.0415.
Consider U20A C30A, for which the self-cleavage came out at 0.0739.
For C19U G50C, the self-cleavage amounted to 0.332.
Regarding C19U G50A, the self-cleavage is 0.245.
C19G C21G: the self-cleavage is 0.0326.
For C19G C21A, the self-cleavage stood at 0.208.
As for U20A C84G, the figure is 0.196; as for U20A C84U, 0.0449; as for C19U U47C, 0.111.
As to C19U U47A, the self-cleavage amounted to 0.191.
For the variant C19U G82U, the self-cleavage is 0.0702.
On to C19U C58U, for which the self-cleavage was 0.126.
For the variant C19U C58G, the self-cleavage was determined as 0.0959.
With C19U C58A, the self-cleavage was 0.086.
For C19U U27G, the self-cleavage is 0.237.
Take U20A G25C: the self-cleavage is 0.151.
Regarding U20A G25U, the self-cleavage stood at 0.119.
Regarding U20A G25A, the self-cleavage stood at 0.0852.
As for U20C A51C, the figure is 0.287; as for C19U G39U, 0.0449; as for C19U G39A, 0.0779.
As for C19G C66G, the figure is 0.141; as for C19G C66A, 0.108.
On to C19G C22G, for which the self-cleavage turned out to be 0.
Take C19G C22A: the self-cleavage amounted to 0.
In the case of C19G C22U, the self-cleavage was 0.0804.
For C19G G68U, the self-cleavage came to 0.119.
As to U20A G31U, the self-cleavage was determined as 0.0978.
Consider U20C A70C, for which the self-cleavage was found to be 0.246.
Next, U20A U65A: 0.0504; U20A C86U: 0.119.
U20A C86A: the self-cleavage is 0.0723.
With U20A C86G, the self-cleavage worked out at 0.166.
Regarding U20A G74A, the self-cleavage came out at 0.
For the variant U20A G74U, the self-cleavage was found to be 0.0437.
As for U20A C26U, the figure is 0.158; as for U20A C26A, 0.0594; as for C19U C24U, 0.101.
C19U U79C: the self-cleavage worked out at 0.0415.
Turning to U20A G81U, the self-cleavage is 0.0346.
Take U20A G81A: the self-cleavage amounted to 0.
With U20A U69G, the self-cleavage is 0.0519.
On to U20A U69C, for which the self-cleavage came to 0.
As to C19G U72C, the self-cleavage was found to be 0.101.
As to U20A U60C, the self-cleavage amounted to 0.
Next, U20A U60G: 0.128; U20A G55C: 0.0536.
U20A G55U: the self-cleavage was 0.0302.
For the variant C19G G40C, the self-cleavage is 0.102.
On to C19G G40A, for which the self-cleavage was 0.0573.
As to C19G G35C, the self-cleavage is 0.208.
Consider C19G G35U, for which the self-cleavage came out at 0.119.
Next, U20A C61U: 0.208.
With U20A C61G, the self-cleavage came to 0.0536.
For the variant C19U G25A, the self-cleavage came out at 0.0252.
Consider C19U A77U, for which the self-cleavage is 0.107.
With C19G G81A, the self-cleavage was determined as 0.117.
As for C19G G81C, the self-cleavage came to 0.0462.
As for C19U C48A, the figure is 0.117; as for C19U C48G, 0.0594.
As to C19U C48U, the self-cleavage was 0.0978.
As for U20A C49U, the self-cleavage was 0.0665.
For the variant C19G U47C, the self-cleavage was 0.0852.
For the variant C19G U47A, the self-cleavage was 0.106.
For C19U G28C, the self-cleavage came to 0.0875.
For the variant C19U G28U, the self-cleavage is 0.172.
In the case of C19G A70G, the self-cleavage stood at 0.104.
Take C19G A70U: the self-cleavage is 0.102.
Consider C19G G28A, for which the self-cleavage was found to be 0.237.
As for U20C A78C, the figure is 0.0449.
As for U20C A78G, the figure is 0.0755.
As for U20A A45C, the figure is 0.0639.
For the variant C19G G73U, the self-cleavage came out at 0.0545.
For the variant C19G G59A, the self-cleavage stood at 0.0542.
In the case of C19G G59C, the self-cleavage was 0.141.
For the variant C19G G59U, the self-cleavage is 0.04.
Regarding C19U A51G, the self-cleavage turned out to be 0.194.
Next, C19G G52C: 0.121.
For the variant C19G G52A, the self-cleavage came out at 0.0739.
Take U20A G68U: the self-cleavage turned out to be 0.
Regarding U20A G68A, the self-cleavage came to 0.0504.
Take C19U G81C: the self-cleavage came to 0.101.
On to C19U G81A, for which the self-cleavage is 0.
Regarding C19G U37C, the self-cleavage is 0.0594.
Next, U20A U27G: 0; U20A G76A: 0.135.
On to U20A G76U, for which the self-cleavage is 0.
Next, C19U U37A: 0.0936; C19U U37C: 0.185.
For C19U U37G, the self-cleavage came to 0.0755.
In the case of U20A G59U, the self-cleavage is 0.222.
Turning to U20A G59C, the self-cleavage stood at 0.0475.
For U20A G59A, the self-cleavage worked out at 0.0302.
As for C19U C61G, the figure is 0.176.
As for C19G U20A, the figure is 0.0314.
Take C19G U20G: the self-cleavage worked out at 0.138.
As for U20A A83U, the self-cleavage was 0.0978.
On to U20A A83C, for which the self-cleavage worked out at 0.
On to U20C A56C, for which the self-cleavage worked out at 0.0615.
Next, U20C A56U: 0.266; U20C A56G: 0.101.
For the variant U20A G28U, the self-cleavage amounted to 0.0386.
Next, U20A G28C: 0.0573; U20A G28A: 0.145.
Consider U20C A87U, for which the self-cleavage came to 0.189.
As to U20C A87C, the self-cleavage is 0.254.
Next, C19U A71G: 0.104.
